In the supplement of paper PMC9170038:

Legend:
[1] = system: MS2 coat protein; experiment: apparent KD of MS2 coat protein, switch OFF state (with FMN for OFF switches, without FMN for ON switches); designed switch direction (-1 OFF switch, 1 ON switch): -1; higher = weaker reporter binding; conditions: FMN input: 0 or 200 uM; Eterna round: R93 (includes R88 designs)
In short: (§1)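 Designed RNA switches were transcribed on-chip from Illumina sequencing clusters. SNAP-549-labelled MS2 coat protein was titrated onto them in twofold steps from 0.7 or 1.5 nM to 3 µM in 100 mM Tris-HCl pH 7.5, 80 mM KCl, 4 mM MgCl2, either without or with constant ligand. Apparent KD reflects the per-design median of normalised cluster binding-curve fits.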

[2] = system: MS2 coat protein; experiment: apparent KD of MS2 coat protein, switch ON state; designed switch direction (-1 OFF switch, 1 ON switch): -1; higher = weaker reporter binding; conditions: FMN input: 0 or 200 uM; Eterna round: R93 (includes R88 designs)
In short: as §1

Sequence	apparent KD of MS2 coat protein [1] [nM]	apparent KD of MS2 coat protein [2] [nM]
AAGAAACAUGAGGAUCACCCAUGUCAGGAUAUCCAAGAAAGAAAGAAAGAAAGAAGAAGGAGAAGGGACAAAGG [Lucius Antonius Pedo]	67.3	64.8
AAGAUGUCAGGAUAUGCUGCUCGUCACGAAAGUGAUGAGUAGCAGAAGGGACAUGAGGAUCACCCAUGUAAAGA [Exclusion 4.1c (Exclusion4-cac2 - mutated U at 5)]	140	112
AAAAGUCGAGGAUAUGCAAAAUGAUUGCGAAAGCAAUCAAAACAUGAGGAUCACCCAUGUAGAAGGCGACAAAA [Fiskers Exclusion 2 D3]	11.1	19.6
AAGAACAUAGGAUAUACAAGGAAGAAAGAAAAGAAAAGAAAACAUGAGGAUCACCCAUGUAGAAGGAUGUAGAA [EteRNA is fun!]	24.8	24.4
AAAAUACAUGAGGAUCACCCAUGUGAGGAUAUCUUAAAGGGAAUAAAAUAACUCAAAAAGAGAAGGCACAAAAA [Ex 1 May 29]	44	35.8
AAAUAGCAAGGAUAUACAUGAGGAUCACCCAUGUAAGGAUGAUACGUAAUAGAAGAAAGUAGAAGGUGCAAAUA [Ex 3 Tesla 6]	148	42.8
ACUAAUGAAGGAUAUACAAACAACAAACACACAACACACACACAUGAGGAUCACCCAUGUAGAAGGUCAAACAU [JR_Exc002_Sub1203]	15.6	15.8
GAAAAACAUGAGGAUCACCCAUGUCAGGAUAUCGAAAAAUAAAUAAAAAUAAAAUAAACGAGAAGGGACAAAAG [Mat - Same state - Mayanna Mod - D111]	61.1	50.2
AAAAAAAGAGGAUAUACGAACAUGUCGAAAGACGUGAAGGGACAUGAGGAUCACCCAUGUAGAAGGUUUAAAAA [Mat - Exclusion 2 - JL mod - D83]	14.6	28.5
CAGUACUGAGGAUAUACAUGAGGAUCACCCAUGUAUCCUAGCUAGGAAACUAGCAAAUGUAGAAGGCAGUACUG [Ex3: 818]	503	47.6
AAAAAGGCAGGAUAUACAUGAGGAUCACCCAUGUUUUAAAAAAAAAAAAAAAAAAAAAGUAGAAGGGCCAAAAA [Ex 3.1]	39.7	52.3
AAAAAGUGAGGAUAUACAUGAGGAUCACCCAUGUAAUAAAAAAAAAGGGUGGAAGAAAGUAGAAGGCACCAAAA [Ex 3 May 48]	142	48.2
AAAAAUGGAGGAUAUACAUGAGGAUCACCCAUGUGUAACUAUACUAAGCACUCCUCACGUAGAAGGCCAAAAAA [Gilly Gone Silly 13 - Jieux - Exclusion 3]	113	55.3
AUAGUACAUGAGGAUCACCCAUGUCAGGAUAUCGGAUAUGACAUGAAAAAAAUGUUAAUGAGAAGGGACUAUAA [EX1 Malc#18 Mod 1 - Jieux - Exclusion 1]	63.6	52.9
AAAAAACAUGAGGAUCACCCAUGUAAGGAUAUCUAAAAUAAAAGAAAAAUAAAGAAAAGGAGAAGGUACAUGAA [JL wbt mod 21]	50.6	28.6
AACAGUACAGGAUAUACAUGAGGAUCACCCAUGUGAACUUCAAGUGCCGUAGCACGAAGUAGAAGGGUACUGGA	497	63.4
AAGAAGUGAGGAUAUCGAAGACAGACGAAAAGUCUGUCAAACGAGAAGGCACAUGAGGAUCACCCAUGUGGGAG [Mat - Exaclusion 4 - Eli mod - D74]	277	114
AAUAAACAUGAGGAUCACCCAUGUGAGGAUAUACAGAUUAUAAGAAAAAAAAAAAAAAGUAGAAGGCACAUAUA [Default title]	45.9	17.6
CUUAUGUGAGGAUAUGUACAGAAAAAACUGGGUGUAACUGUACAGAAGGCACAUGAGGAUCACCCAUGUAAAAA [EX4 387: S S Pseudoknot 12]	31	36.4
AAAAGGUCAGGAUAUACAAAAAAAAAAAAAAAAAAAAAAAAGUAGAAGGGACAUGAGGAUCACCCAUGUGAAAA [Exclusion 4 - Omei 2]	40.3	64
AGCUAGUCAGGAUAUACGAACAUGUCAAAAGACGUGAAAAAACAUGAGGAUCACCCAUGUAGAAGGGACUAGCA [Mat - Exclusion 2 - JL mod - D11]	14.6	18.8
AACAGUACAGGAUAUACAUGAGGAUCACCCAUGUGAAAAUAAAGUGGCGUACCACAAAGUAGAAGGGUACUGAA [Mat - Exclusion 3 - JL mod - D26]	124	26.7

Sequence	apparent KD of MS2 coat protein [1] [nM]	apparent KD of MS2 coat protein [2] [nM]
GGUUGGCGAGGAUAUACAUGAGGAUCACCCAUGUGAGCGAAAAAAGUGAGAAAGAAAAGUAGAAGGCGCUGACG [salish99-ex3-50]	60.5	45.7
AACAGUACAGGAUAUACAUGAGGAUCACCCAUGUGAGAAUUAAGCAGCGUAACACAAAGUAGAAGGGUAAUGGA [Ruby 19]	43.9	39.9
AAUGGUGGAGGAUAUACAUGAGGAUCACCCAUGUAAAUCACACAUGUGGUCAAAGCAUGUAGAAGGCCACUAAA [Ex 3May 52]	84.9	86
AAAAAGGGAGGAUAUACAUGAGGAUCACCCAUGUAAAAAAAAAAAAAGGGAAAAAAAAGUAGAAGGCCCAAAAA [Apepi]	52.6	50.1
UUUUGACAUGAGGAUCACCCAUGUCAGGAUAUAGUAGGACAAAAAAAAAAAAGUUCUACUAGAAGGGAUAUGAA [Design 16: Not So Super Stable 2]	26.7	17.8
GAAAAAGGAGGAUAUACGUACAUGUCAAAAGACGUGAAGGGACAUGAGGAUCACCCAUGUAGAAGGCUUAAAAG [Mat - Exclusion 2 - JL mod - D95]	21.4	59.4
CUUAAGUGAGGAUAUCAGUAGUAAAAAAAUAAAAUUACUACUGAGAAGGCACAUGAGGAUCACCCAUGUUCCAA [EX4 341: Super Stable 41]	38.1	29.7
AACAGUACAGGAUAUACAUGAGGAUCACCCAUGUGAAAAUUAAGUGGGAGACCACAAAGUAGAAGGGUACUGAA [Mat - Exclusion 3 - Eli mod - D60]	62.3	126
AAGAAUGCAGGAUAUACAUGAGGAUCACCCAUGUAAAAGAAAGAAAAGGGAAAGAAAAGUAGAAGGGCAAAGAA [Satre-merenamun Tausret]	30.5	29.6
AAGAAGACAGGAUAUACAUGAGGAUCACCCAUGUAAAAGAAAGAAAGGGAAAAGAAAAGUAGAAGGGUCAAGAA [Khepermaatre-setpenptah Ramesses X]	51.4	37.6
AAUAGUGAAGGAUAUACAGGAGAAGAAAGAUAAAAGAAAGAACAUGAGGAUCACCCAUGUAGAAGGUCAGAAGU [JR_Exc002_Sub1229]	19.9	27.1
AACAGUACAGGAUAUACAUGAGGAUCACCCAUGUAAAAAUAAUAAAAGGGCUCAAAAAGUAGAAGGGUACUGGA [Moding Maslow revisited (73) 15]	66.3	31.2
AAAAAGUCAGGAUAUACAUGAGGAUCACCCAUGUGAAAGAACGAAAAACGAAAAGCAAGUAGAAGGGACAAAAA [Ruby 78]	14	13.1
AGUUGGCGAGGAUAUACAUGAGGAUCACCCAUGUGAGAGAAAAAAGUGAGAAAGAAAAGUAGAAGGCGCUGACA [salish99-ex3-05]	202	49.2
AAAACACAUGAGGAUCACCCAUGUGAGGAUAUGAACGAAAAUAAAUAAAAAUAAAAGUUCAGAAGGCACAAAAA [66%, Wbt, 11]	36.1	24.2
AAAAAAAGAGGAUAUACAUGAGAAAAAAAAAUGUAAAAAAAACAUGAGGAUCACCCAUGUAGAAGGCUUAAAAA [Ecxl-I]	48.3	33.5
AGUUUGUCAGGAUAUGCGUGAAGAAUAAAACAAAUAACAACGCAGAAGGGACAUGAGGAUCACCCAUGUAAACA [May 54]	58.1	51.3
AAAAAACAUGAGGAUCACCCAUGUCAGGAUAUCCGGUUCUUGAAAAUCAAGAGGCGUUGGAGAAGGGACAUUCC [Chica Displaced 14 - Jieux - Exclusion 1]	74.4	27.9
AAAAAACAUGAGGAUCACCCAUGUGAGGAUAUCGGAAACAAAAAAAACAAAAACAAAACGAGAAGGCACAAAAA [Amethyst 32]	26.6	72.4
AGUCAUACAGGAUAUACAUGAGGAUCACCCAUGUAUAUCCAAAAAAAAAAAAACUCAUGUAGAAGGGUAUGACA [EX3 206: Super Stable 6]	12.4	12
GCGCACUAAGGAUAUACAUGAGGAUCACCCAUGUGGGUUUUGAAACAGAUUAAAUAGUGUAGAAGGUAGAAAAC [Lees]	95.8	91.9
AAAAAACAUGAGGAUCACCCAUGUGAGGAUAUGCGAAAAUAAAAUAAAAUAAUAAAAAGCAGAAGGCACACCAA [58%, Sh'dynasty, 2]	29	22
